The values that follow come from PMC10954620.

Some results are limits rather than exact numbers.

The experiment deals with OmcS nanowires (cytochrome OmcS filaments of Geobacter sulfurreducens) (G. sulfurreducens (endogenous in strain ΔomcZ)) (UniProt Q74A86). The experiment in a line: NMR titration; 1D 1H NMR chemical shift perturbation of the heme methyl signals of oxidized PpcA-E with and without OmcS nanowires, single point at 1:4 heme ratio periplasmic cytochrome:OmcS; 50 mM potassium phosphate with KCl (ionic strength 150 mM), pH 7, 2H2O; 298 K, 600 MHz.
UniProt Q74A86, sequence (Q74A86 26-432, stated change not applied): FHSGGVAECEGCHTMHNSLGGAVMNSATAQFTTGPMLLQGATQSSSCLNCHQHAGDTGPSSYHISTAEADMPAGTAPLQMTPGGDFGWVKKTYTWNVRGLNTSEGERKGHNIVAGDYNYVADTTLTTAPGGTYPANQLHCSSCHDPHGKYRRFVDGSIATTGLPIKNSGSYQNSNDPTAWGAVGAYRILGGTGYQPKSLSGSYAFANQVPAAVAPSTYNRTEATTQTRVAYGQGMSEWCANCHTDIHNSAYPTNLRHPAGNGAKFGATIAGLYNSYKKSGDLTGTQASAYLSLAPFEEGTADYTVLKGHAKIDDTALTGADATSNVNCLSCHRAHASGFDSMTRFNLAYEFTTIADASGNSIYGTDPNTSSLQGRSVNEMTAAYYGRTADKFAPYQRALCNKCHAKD

On to “Periplasmic triheme cytochrome PpcE (natural protein)”, for which the chemical shift change of heme methyls (Δδ) was below 0.04 ppm. “Periplasmic triheme cytochrome PpcA (natural protein)”: the chemical shift change of heme methyls (Δδ) was below 0.04 ppm.

As to “Periplasmic triheme cytochrome PpcD (natural protein)”, the chemical shift change of heme methyls (Δδ) is below 0.04 ppm. In the case of “Periplasmic triheme cytochrome PpcB (natural protein)”, the chemical shift change of heme methyls (Δδ) is below 0.04 ppm.
